In this assay the target is T1, Mps1(1–239) (human), P33981.
T1 chain: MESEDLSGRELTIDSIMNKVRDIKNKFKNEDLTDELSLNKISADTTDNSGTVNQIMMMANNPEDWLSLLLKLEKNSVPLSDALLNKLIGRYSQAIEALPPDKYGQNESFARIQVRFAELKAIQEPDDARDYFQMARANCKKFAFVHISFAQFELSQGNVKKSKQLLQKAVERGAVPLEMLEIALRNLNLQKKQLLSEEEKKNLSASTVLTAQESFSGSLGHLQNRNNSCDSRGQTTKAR
Nature of the assay: SEC. The note with it: remark: other sources report otherwise.

Drawing on article PMC3285366, this text covers stoichiometry N for one molecule.

A word on the stoichiometry N: it is a count of units in the complex or per binding partner.

B1: Mps1(1–239), P33981 1-239 (domain or fragment)
chain: T1 chain
In turn, B1 gave a stoichiometry N of 2.
